The test has as its target human type IIA sPLA2 (human) (UniProt P14555). The test is described as follows: cell-based or functional assay.

Chain of human type IIA sPLA2 (human) (P14555 21-144): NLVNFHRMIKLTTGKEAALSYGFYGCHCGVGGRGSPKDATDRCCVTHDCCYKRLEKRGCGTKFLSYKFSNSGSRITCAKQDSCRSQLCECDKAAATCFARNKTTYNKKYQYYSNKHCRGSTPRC

Consider D65S-PIP (59-67) (peptide), for which the IC50 of sPLA2 enzyme inhibition (3H-labelled E. coli membranes as substrate) came out at 5.25 µM.
Regarding D65A-PIP (59-67) (peptide), the IC50 of sPLA2 enzyme inhibition (3H-labelled E. coli membranes as substrate) was found to be 5.45 µM.
Substance D65E-PIP (59-67) (peptide) yielded an IC50 of sPLA2 enzyme inhibition (3H-labelled E. coli membranes as substrate) of 4.95 µM.
In turn, PIP (59-67) dimer (peptide) came in with an IC50 of sPLA2 enzyme inhibition (3H-labelled E. coli membranes as substrate) of 1.19 µM and a Mean % Inhibition at fixed peptide concentration [5 µM] of 74.5%.

These data come from patent US20050069530A1.
